B1: rsVCAM: recombinant soluble VCAM, a competitive inhibitor of integrin α4β1 function (protein)
chain: FKIETTPESRYLAQIGDSVSLTCSTTGCESPFFSWRTQIDSPLNGKVTNEGTTSTLTMNPVSFGNEHSYLCTATCESRKLEKGIQVEIYSFPKDPEIHLSGPLEAGKPITVKCSVADVYPFDRLEIDLLKGDHLMKSQEFLEDADRKSLETKSLEVTFTPVIEDIGKVLVCRAKLHIDEMDSVPTVRQAVKELQVYISPKNTVISVNPSTKLQEGGSVTMTCSSEGLPAPEIFWSKKLDNGNLQHLSGNATLTLIAMRMEDSGIYVCEGVNLIGKNRKEVELIVQEKPFTVEISPGPRIAAQIGDSVMLTCSVMGCESPSFSWRTQIDSPLSGKVRSEGTNSTLTLSPVSFENEHSYLCTVTCGHKKLEKGIQVELYSFPRDPEIEMSGGLVNGSSVTVSCKVPSVYPLDRLEIELLKGETILENIEFLEDTDMKSLENKSLEMTFIPTIEDTGKALVCQAKLHIDDMEFEPKQRQSTQTLYVNVAPRDTTVLVSPSSILEEGSSVNMTCLSQGFPAPKILWSRQLPNGELQPLSENATLTLISTKMEDSGVYLCEGINQAGRSRKEVELIIQVTPKDIKLTAFPSESVKEGDTVIISCTCGNVPETWIILKKKAETGDTVLKSIDGAYTIRKAQLKDAGVYECESKNKVGSQLRSLTLDVQGRENNKDYFSPE

What was measured:
[1] = tested on: bFGF or VEGF induced angiogenesis in Matrigel; assay: Murine Matrigel angiogenesis assay (bFGF or VEGF); type: in vivo, mouse; conditions: peptide antagonist; 50 μM in bFGF matrigel, nude mice (FIG. 19G)
Protocol: (B, C) Adhesion of endothelial cells to plastic plates coated with 5 μg/ml CS-1 fibronectin, in the presence of medium, anti-α4β1 (HP1/2) or control antibodies (P1F6). (D) Cryosections from bFGF stimulated, saline or antibody-treated CAMs were immunostained to detect blood vessel expression of von Willebrand Factor. (E) Angiogenesis was initiated in FVB/N mice by corneal transplantation of polymerized pellets containing 400 ng/ml of VEGF. Animals (n=5) were treated on day 0 and day 3 with anti-α4β1 (PS/2) or control IgG (cIgG). Fifteen minutes prior to sacrifice on day 5, mice were injected intravenously with endothelial specific lectin, Bandeira simplifolia-FITC and tissues were cryopreserved. Angiogenic response to VEGF was quantified as the percent green fluorescent area visible under high power magnification (100×). […] Matrigel plugs were homogenized in RIPA buffer and fluorescence intensity determined.
[…] Microvessel density was quantified in 10 randomly selected 200× microscopic fields for each plug in each treatment group (n=8). […] Angiogenic response to VEGF was quantified as the percent green fluorescent area visible at 100× magnification. […] Tumor dimensions were determined every other day and tumor mass was determined after four weeks of treatment. […] Statistical significance was determined using Student's t-test.

[2] = tested on: endothelial progenitor cells (EPCs); assay: Adhesion of DiI-labeled EPCs to endothelial (HUVEC) monolayers; type: cell-based, human; conditions: DiI-labeled EPCs on proliferating HUVEC monolayers; FIG. 17D
Protocol: (A-B) Adhesion of purified EPCs on plastic plates coated with (A) 5 μg/ml CS-1 fibronectin or (B) recombinant soluble VCAM in the presence of medium, anti-α4β1 (HP1/2) or control antibodies (P1F6). (C) Adhesion of DiI-labeled purified EPCs to HUVEC monolayers VCAM in the presence of medium, anti-α4β1 (HP1/2) or control antibodies (P1F6). Cells were quantified by counting adherent red fluorescent cells per 200× microscopic field. (D) Adhesion of DiI-labeled purified EPCs to HUVEC monolayers in the presence of medium, rsVCAM or control protein. Statistical significance was determined using Student's t-test.
To determine whether EPCs can attach to proliferating vascular endothelium that has been stimulated by angiogenic growth factors, we plated EPCs labeled with DiI-acetylated LDL onto proliferating endothelial monolayers. EPCs bound strongly to endothelium in a α4β1 dependent manner (FIG. 17C) and that rsVCAM blocked EPC attachment to endothelial monolayers (FIG. 17D). […] Thus, α4β1 mediates the attachment of EPCs to VCAM on vascular endothelium. […]

[3] = tested on: human CD34+ stem cells; assay: CD34+ stem cell adhesion to HUVEC monolayers; type: cell-based; conditions: 60 minutes, 25 μg/ml HP2/1 or P1F6 (FIG. 34d-e)
Protocol: Adhesion assays were performed on plastic 48 well plates coated with 5 μg/ml of recombinant H120 CS-1 fibronectin (from Martin J. Humphries, University of Birmingham, UK) as described (Kim et al. (2000) Am. J. Pathol. 156, 1345-1362). Stem cells were incubated on coated plates for 30 minutes in the presence of 25 μg/ml anti-α4β1_(HP2/1) or anti-αvβ5 (P1F6, from Dr. David Cheresh, the Scripps Research Institute). CMTMR labeled stem cells were incubated in HEPES buffered serum free culture medium in the presence of 25 μg/ml HP2/1 or P1F6 on HUVEC monolayers for 60 minutes at 37° C. Unbound cells were removed by washing gently with PBS. Cells were fixed in 3.7% parafomaldeyde. Representative fields were photographed at 200× and the number of cells adhering per field was quantified in five representative fields per treatment condition.

Molecule | neovascularization in Matrigel model [1] | EPC attachment to endothelial monolayers [2] | stem cell adhesion to endothelial cell (EC) monolayers [3]
EILDV | blocked |  | 
B1 |  | blocked | blocked

Source: US9403908B2, “Method for altering hematopoietic progenitor cell adhesion, differentiation, and migration” (The Regents of the University of California, priority 2003, dated 2016)
